In PMC10506485, “Human astrovirus capsid protein releases a membrane lytic peptide upon trypsin maturation” (Journal of Virology, 2023):

Molecular target: the molecule itself
Assay: SEC; Superdex-200 or Superdex-75 size exclusion column; 50 mM Tris-HCl pH 8.0, 150 mM NaCl, 1 mM NaN3; self-association judged from the elution profile

Protein	stoichiometry N	binding result
HAstV8 VP90^72-782 (domain or fragment, Capsid polyprotein precursor VP90 of human astrovirus serotype 8 (strain Yuc8), residues 72-782, N-terminal truncation; The results name the vector pET28a, the methods pET-SUMOc with an N-terminal 6xHis-SUMO tag; also called aa72–782; source: E. coli (Rosetta 2 (DE3) or BL21), purified (HisTrap, Superdex size exclusion)) QGVTGPKPAICQTATATLGTIGSNTTGATEIEACILLNPVLVKDATGSTQFGPVQALGAQYSMWKLKYLNVRLTSMVGASAVNGTVVRISLNPTSTPSSTSWSGLGARKHLDVTVGKNAVFKLKPSDLGGPRDGWWLTNTNDNASDTLGPSIEIHTLGQTMSSYQNTQFTGGLFLVELSSAWCFTGYAANPNLVNLVKSTDKSVNVTFEGSAGTPLIMNVPEHSHFARTAVEHSSLSTSLSRAGGESSSDTVWQVLNTAVSAAELVTPPPFNWLVKGGWWFVKLIAGRARTGARRFYVYLSYQDALSNKPALCTGGVPASARQSNPVRTTLQFTQMNQPSLGHGATPMTFGRSIPEPGEQFRVLLTVGPPMAPNTANSQNWVNKTIVPPENQYTVKIGIDLEHYTTMQGFTPVESVSWYTADFQPSDEPSPIPGLYARVNNTKKADVYGVQQFKSSHTNNRHQITSVFLVRVTTSFQVINYTSYFIRGAESGSNVSNLKIRDQTYHTPLQFTQGKWYLLTSTVMHDGPTSSGWVWMNQELTNNIAYRVDPGMMYLITPPPAASQLYFELHTVLPQARSEEPETYVDAPLPEEPPIEEEETDSDFESTEDENDEVDRFDLHPSSESDDDDVENDRATLLSTLLNQGISVERATRITNGAFPTRAARVRRSVYNDLLVSGLSPGAAWSHACEQARRAGDNHDLQLSGSRDHAE	2	–
HAstV8 VP90^14-782 (domain or fragment, Capsid polyprotein precursor VP90 of human astrovirus serotype 8 (strain Yuc8), residues 14-782, N-terminal truncation; The results name the vector pET28a, the methods pET-SUMOc with an N-terminal 6xHis-SUMO tag; also called aa14–782; source: E. coli (Rosetta 2 (DE3) or BL21), purified (HisTrap, Superdex size exclusion)) NNNGRSRSKSRARSQSRGRGRSVKITVNSHNKGRRQNGRNKYQSNQRVRKIVNKQLRKQGVTGPKPAICQTATATLGTIGSNTTGATEIEACILLNPVLVKDATGSTQFGPVQALGAQYSMWKLKYLNVRLTSMVGASAVNGTVVRISLNPTSTPSSTSWSGLGARKHLDVTVGKNAVFKLKPSDLGGPRDGWWLTNTNDNASDTLGPSIEIHTLGQTMSSYQNTQFTGGLFLVELSSAWCFTGYAANPNLVNLVKSTDKSVNVTFEGSAGTPLIMNVPEHSHFARTAVEHSSLSTSLSRAGGESSSDTVWQVLNTAVSAAELVTPPPFNWLVKGGWWFVKLIAGRARTGARRFYVYLSYQDALSNKPALCTGGVPASARQSNPVRTTLQFTQMNQPSLGHGATPMTFGRSIPEPGEQFRVLLTVGPPMAPNTANSQNWVNKTIVPPENQYTVKIGIDLEHYTTMQGFTPVESVSWYTADFQPSDEPSPIPGLYARVNNTKKADVYGVQQFKSSHTNNRHQITSVFLVRVTTSFQVINYTSYFIRGAESGSNVSNLKIRDQTYHTPLQFTQGKWYLLTSTVMHDGPTSSGWVWMNQELTNNIAYRVDPGMMYLITPPPAASQLYFELHTVLPQARSEEPETYVDAPLPEEPPIEEEETDSDFESTEDENDEVDRFDLHPSSESDDDDVENDRATLLSTLLNQGISVERATRITNGAFPTRAARVRRSVYNDLLVSGLSPGAAWSHACEQARRAGDNHDLQLSGSRDHAE	–	binds
HAstV8 VP90^28-782 (domain or fragment, Capsid polyprotein precursor VP90 of human astrovirus serotype 8 (strain Yuc8), residues 28-782, N-terminal truncation; The results name the vector pET28a, the methods pET-SUMOc with an N-terminal 6xHis-SUMO tag; Forms rod-shaped assemblies of about 20 nm diameter and variable length; also called aa28–782; source: E. coli (Rosetta 2 (DE3) or BL21), purified (HisTrap, Superdex-200 size exclusion)) QSRGRGRSVKITVNSHNKGRRQNGRNKYQSNQRVRKIVNKQLRKQGVTGPKPAICQTATATLGTIGSNTTGATEIEACILLNPVLVKDATGSTQFGPVQALGAQYSMWKLKYLNVRLTSMVGASAVNGTVVRISLNPTSTPSSTSWSGLGARKHLDVTVGKNAVFKLKPSDLGGPRDGWWLTNTNDNASDTLGPSIEIHTLGQTMSSYQNTQFTGGLFLVELSSAWCFTGYAANPNLVNLVKSTDKSVNVTFEGSAGTPLIMNVPEHSHFARTAVEHSSLSTSLSRAGGESSSDTVWQVLNTAVSAAELVTPPPFNWLVKGGWWFVKLIAGRARTGARRFYVYLSYQDALSNKPALCTGGVPASARQSNPVRTTLQFTQMNQPSLGHGATPMTFGRSIPEPGEQFRVLLTVGPPMAPNTANSQNWVNKTIVPPENQYTVKIGIDLEHYTTMQGFTPVESVSWYTADFQPSDEPSPIPGLYARVNNTKKADVYGVQQFKSSHTNNRHQITSVFLVRVTTSFQVINYTSYFIRGAESGSNVSNLKIRDQTYHTPLQFTQGKWYLLTSTVMHDGPTSSGWVWMNQELTNNIAYRVDPGMMYLITPPPAASQLYFELHTVLPQARSEEPETYVDAPLPEEPPIEEEETDSDFESTEDENDEVDRFDLHPSSESDDDDVENDRATLLSTLLNQGISVERATRITNGAFPTRAARVRRSVYNDLLVSGLSPGAAWSHACEQARRAGDNHDLQLSGSRDHAE	–	binds
